Source: the supplement of paper PMC11865577

What was measured:
Assay in all cases: pull-down binding Z-score (relative to library population); higher = stronger binding
[1] = system: G-clamp-N3 (biotin conjugate); conditions: RNA library: Library-1 (pre-miRNA loops + repeats)
In short: (§1)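 A heat-folded, dye-end-labelled (Cy5 or Cy3) RNA library (1 μg, phosphate/NaCl/KCl buffer) was exposed for 60 min at 25 °C to streptavidin beads holding 100 pmol of biotin-conjugated small molecule. RNA retained on the beads was eluted in hot SDS and hybridised to a DNA barcode microarray for 20 h at 55.5 °C. Binding scores were Z-scores against the library mean and standard deviation, calculated after subtracting beads alone and taking trimmed means of replicate probes.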

[2] = system: TO-3-N3 (biotin conjugate); conditions: RNA library: Library-2
In short: as §1

[3] = system: TO-3-N3-2 (biotin conjugate); conditions: RNA library: Library-2
In short: as §1

[4] = system: TO-N3 (biotin conjugate); conditions: RNA library: Library-2
In short: as §1

[5] = system: TO-N3-2 (biotin conjugate); conditions: RNA library: Library-2
In short: as §1

Row | Sequence | pull-down binding Z-score [1] | pull-down binding Z-score [2] | pull-down binding Z-score [3] | pull-down binding Z-score [4] | pull-down binding Z-score [5]
1 | GCCUGCGGGCAGGAAGCGGA [hsa-mir-3928] | -0.0318 | 1.57 | 1.34 | 1.87 | 2.23
2 | CACUCCCGUGCUUGUCCGAGGAGGGAGG [hsa-mir-149] | 1.29 | 1.78 | 0.731 | 2.63 | 2.78
3 | UGGAGCUAGACCACAUGGGUUCA [hsa-mir-5100] | -0.932 | -0.111 | -0.115 | -0.131 | 0.244
4 | ACUUUCACCAGAGAGCAGAAAGU [hsa-mir-371b] | 0.341 | -0.485 | -0.564 | -0.636 | -0.356
5 | CAGUGAACUAUCAUUGUGCCACUG [hsa-mir-1254-1] | 0.978 | 0.06 | -0.125 | 0.135 | -0.0953
6 | CUUCAGAGCAGGGUUUGGUCUGUGCUUCUCUG [hsa-mir-6719] | 0.184 | -0.415 | -0.245 | -0.222 | 0.452
7 | GAUUGAAGUUGAAUAGUGC [hsa-mir-3161] | 0.429 | -0.231 | 0.274 | -0.125 | 0.0514
8 | GGUAAGGUCUUUCAGCC [hsa-mir-7150] | 0.213 | 0.648 | 0.105 | 0.622 | 0.413
9 | CACUGAUUCAGUAAAAUACUCAGUG [hsa-mir-891a] | -0.252 | -0.707 | -0.845 | -1.09 | -1.35
10 | CACAGUUCUGG [hsa-mir-761] | 0.647 | 0.292 | -0.473 | 0.102 | 0.18
11 | AGUGGAAAAAGUUCUUUUCUUCCUCU [hsa-mir-3192] | 0.387 | 0.0782 | 0.895 | 0.0678 | -0.263
12 | AUGUGAUUGCUGUCCCAAACUCAUGU [hsa-mir-135b] | -0.794 | -0.305 | 0.00564 | -0.126 | -0.0979
13 | GUGAGAGAUGCUUCUAGAUCCAGGAGGCAGACCUCAA [hsa-mir-4325] | -0.658 | 0.524 | 0.123 | 0.822 | 0.879
14 | UAGGAGCUGUGCCUCCUGGCCUAUUCCUGUUCGUG [hsa-mir-8056] | 0.294 | -0.344 | -0.167 | 0.0941 | 0.623
15 | CCUGGAGAGCUGCUGUCUCCAG [hsa-mir-6746] | 1.35 | -0.114 | -0.596 | 0.0297 | 0.355
16 | UUGGGGAGGAGCUAAGAAGCCCCUACAGGGCCCAG [hsa-mir-4257] | 1.25 | 0.138 | 0.24 | 0.56 | 1.05
17 | CUGUUCAGGAGGCUCUCAAUGUGUACA [hsa-mir-199a-1] | -0.113 | 0.518 | 0.404 | 0.947 | 0.656
18 | UGUUAGUGUUCAAGUCUACA [hsa-mir-4802] | 0.156 | -0.747 | -0.398 | -0.509 | -0.255
19 | CCUGUUUGAAUAUUUCACCAGAAACAGG [hsa-mir-4433b] | 1.2 | -0.311 | -0.044 | -0.402 | -0.74

Row | Sequence | pull-down binding Z-score [1] | pull-down binding Z-score [2] | pull-down binding Z-score [3] | pull-down binding Z-score [4] | pull-down binding Z-score [5]
20 | CUCAUUGUUGAAUGGAAUGAGAU [hsa-mir-3145] | 2.58 | -0.527 | -0.319 | -0.571 | 0.348
21 | CUGUGCAGGGCCAACUGUGCACAC [hsa-mir-3681] | 0.785 | 0.827 | 0.227 | 1.15 | 1.14
22 | UGGAAGGAAUGGGAUCUACUUCCA [hsa-mir-3612] | 0.981 | 0.389 | 0.46 | 0.285 | -0.214
23 | AUAGUUGUGGGGUAGUGAUUUUACCCUGUUCAGGAGAUAACUAU [hsa-let-7f-1] | -0.471 | 0.676 | 0.657 | 0.842 | 0.224
24 | GGUUCAAGUUUGGCUCCAUCUUUAUGAAA [hsa-mir-4506] | -0.636 | -0.0094 | 0.109 | 0.0775 | 0.415
25 | GGUACUUUAUAAUUUCAAAAAGUCCC [hsa-mir-361] | -0.194 | -1.13 | -0.356 | -1.51 | -1.41
26 | CUUCGGUAUUCAUCAAAAAUACCAAAG [hsa-mir-4735] | -0.293 | -0.683 | -0.63 | -1.08 | -1.52
27 | UGCUGAUGUCAUCAGUCAUAACUUCUGCG [hsa-mir-6854] | -0.983 | -0.119 | 0.131 | -0.0155 | 0.366
28 | CUGGGAGGUGUGAUCCUGUGCUUCCUGG [hsa-mir-3689a] | -0.339 | 0.678 | 0.507 | 0.863 | 1.15
29 | UUUUAAUUUUUUUAAAA [hsa-mir-3606] | -1.03 | 0.211 | -0.175 | -0.183 | -1.39
30 | CCUCACCUGCUGAGAG [hsa-mir-3670-3_3670-2_3670-1_3670-4] | 0.409 | -0.258 | -0.133 | -0.143 | 0.19
31 | UAUUGUGUUGAUCAACAAUA [hsa-mir-5590] | -0.46 | -0.858 | -0.465 | -0.668 | -0.668
32 | UAUAUACUGAUGUAAUUUUCCUUGGAUUUAUAUGCAGUACUGAG [hsa-mir-6130] | -0.931 | 0.00904 | 0.252 | 0.102 | -0.225
33 | GGGGGCAGGCUGCCACCUCCUG [hsa-mir-8089] | -0.161 | 1.5 | 0.599 | 1.89 | 1.36
34 | AGCAUCUGAAUGGGUACAGUUGUUGU [hsa-mir-6818] | -0.405 | 0.0263 | -0.0469 | 0.0834 | -0.225
35 | UGUUCAUUCACAUGAUCAUAAGUGGACA [hsa-mir-4643] | 0.373 | 0.535 | 0.169 | 0.388 | -0.251
36 | GCGCGGGAAAGUUCGGGAACGCGCG [hsa-mir-4479] | 0.488 | 0.386 | 0.246 | 0.854 | 1.72
37 | UCUGUUGUCUGAAAGAAAACA [hsa-mir-518b_518c] | -0.569 | -0.441 | 0.0546 | -0.285 | 0.0545
